We go through five molecules from paper PMC3990689, “Identification and Characterization of ABA Receptors in Oryza sativa” (PLoS ONE, 2014).

For data set [1], the target named is OsPYL1 (Oryza sativa (japonica cultivar-group)). Kind of data set: AUC; sedimentation velocity at 4°C, 40,000 rpm; OsPYL proteins at OD280 = 0.75; absorbance at 280 nm; oligomerization state.
For data set [2] the target is unchanged. Kind of data set: SEC; Superdex-200 HR10/300 GL, 25 mM HEPES pH 7.0, 150 mM NaCl; 500 µL OsPYL (OD280 = 0.75) applied; oligomerization state. Background: In gel filtration, larger molecules generally elute earlier.
Data set [3] shares this target. The experiment in a line: static light scattering; DAWN HELLOS II (Wyatt) at 18°C; OsPYLs about 2 mg/mL; calibrated with albumin monomer standard; oligomerization state.
Data set [4] deals with OsPYL12 (Oryza sativa (japonica cultivar-group)). The experiment in a line: AUC; sedimentation velocity at 4°C, 40,000 rpm; OsPYL proteins at OD280 = 0.75; absorbance at 280 nm; oligomerization state.
For data set [5] the target is unchanged. The experiment in a line: SEC; Superdex-200 HR10/300 GL, 25 mM HEPES pH 7.0, 150 mM NaCl; 500 µL OsPYL (OD280 = 0.75) applied; oligomerization state.
For data set [6] the target is unchanged. The experiment in a line: static light scattering; DAWN HELLOS II (Wyatt) at 18°C; OsPYLs about 2 mg/mL; calibrated with albumin monomer standard; oligomerization state.
The next data set concerns the target T1, OsPYL11 (with OsPP2C09) (Oryza sativa, UniProt Q6I5C3).
T1 construct: gene PYL5; recombinant, E. coli BL21(DE3), pET-15b; OsPYL11 monomer; equals OsPYL/RCAR5 of earlier work; with Probable protein phosphatase 2C 9
T1 sequence (Q6I5C3 1-209): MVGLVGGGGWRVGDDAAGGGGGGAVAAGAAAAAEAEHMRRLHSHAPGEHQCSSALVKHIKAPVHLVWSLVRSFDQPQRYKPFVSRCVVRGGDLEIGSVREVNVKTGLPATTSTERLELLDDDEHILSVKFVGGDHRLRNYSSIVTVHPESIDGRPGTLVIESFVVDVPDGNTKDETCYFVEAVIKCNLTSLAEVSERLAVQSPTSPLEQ
T1 sequence (Q5N9N2 1-414 partner): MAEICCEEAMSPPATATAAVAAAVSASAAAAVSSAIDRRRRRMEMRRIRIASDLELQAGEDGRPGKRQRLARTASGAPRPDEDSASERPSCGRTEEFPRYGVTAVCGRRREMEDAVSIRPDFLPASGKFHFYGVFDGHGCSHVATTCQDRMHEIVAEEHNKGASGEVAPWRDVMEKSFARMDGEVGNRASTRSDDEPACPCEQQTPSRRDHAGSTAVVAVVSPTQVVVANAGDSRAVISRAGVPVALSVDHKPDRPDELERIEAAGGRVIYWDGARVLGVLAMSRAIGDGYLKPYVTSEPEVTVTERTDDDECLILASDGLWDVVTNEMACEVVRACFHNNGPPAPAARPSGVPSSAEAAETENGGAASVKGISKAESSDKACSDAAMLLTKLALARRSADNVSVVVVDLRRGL
Kind of data set: Ser/Thr phosphatase assay, inhibition of OsPP2C09 by receptor. The data set is classed as biochemical. The following applies: ABA ten fold of OsPYL; OsPP2C09 1.8 µM; read at 630 nm.

In another data set the target is T2, OsPYL2 (Oryza sativa, UniProt Q5Z8S0).
T2 construct: gene PYL9; recombinant, E. coli BL21(DE3), pET-15b, Ni-NTA; mainly dimer; residues named: K74, F76, V98, L102, P103, A104, S107, E109, V125, L132, E162, F180, V184, N188
T2 sequence (Q5Z8S0 1-207): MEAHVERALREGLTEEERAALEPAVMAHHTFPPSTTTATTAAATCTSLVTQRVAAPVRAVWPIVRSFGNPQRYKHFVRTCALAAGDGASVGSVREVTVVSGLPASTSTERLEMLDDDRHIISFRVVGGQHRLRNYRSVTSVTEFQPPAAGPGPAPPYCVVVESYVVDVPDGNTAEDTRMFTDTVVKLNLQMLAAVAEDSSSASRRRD
The experiment in a line: isothermal titration calorimetry. It is filed as binding.

Data set [7] deals with the molecule itself. The experiment in a line: SEC; Superdex-200 HR10/300 GL, 25 mM HEPES pH 7.0, 150 mM NaCl; 500 µL OsPYL (OD280 = 0.75) applied; oligomerization state.

Usually stoichiometry N stands for the number of molecules, sites or subunits per partner or assembly. As for OsPYL1 (receptor), the stoichiometry N in [1], in [2] and in data set [3] was 2 each time.

OsPYL12 (receptor): the stoichiometry N in [4], in data set [5] and in [6] was 2 each time.

What is called Kd is the free concentration of one partner at which half of the binding sites on the other are occupied at equilibrium, for simple one-to-one binding. A higher Kd goes with weaker binding. For the molecule `CC1=CC(=O)CC(C)(C)C1(O)/C=C/C(C)=C\C(=O)O` (stereo in doubt) [(+)-ABA], on OsPYL11 (with OsPP2C09), the “Ser/Thr phosphatase assay, inhibition of OsPP2C09 by receptor” value is “in the presence of ABA, all of the OsPYLs proteins could completely inhibit”. The molecule further yielded a Kd on OsPYL2 of about 31.3 µM.

B1: OsPYL3 (receptor)
chain: ERGRGGVGAEDARGGADEVAARERLEGVVRAHHTFPAAERAAGPGRRPTCTSLVAQRVDAPLAAVWPIVRGFANPQRYKHFIKSCELAAGDGATVGSVREVAVVSGLPASTSTERLEILDDDRHVLSFRVVGGDHRLRNYRSVTSVTEFSSPSSPPRPYCVVVESYVVDVPEGNTEEDTRMFTDTVVKLNLQKLAAVATSSSPPAAGNHH
Take B1: the “stoichiometry N” value in [7] came out at 2.

B2: OsPYL2 (receptor, Oryza sativa (japonica cultivar-group))
chain: MEAHVERALREGLTEEERAALEPAVMAHHTFPPSTTTATTAAATCTSLVTQRVAAPVRAVWPIVRSFGNPQRYKHFVRTCALAAGDGASVGSVREVTVVSGLPASTSTERLEMLDDDRHIISFRVVGGQHRLRNYRSVTSVTEFQPPAAGPGPAPPYCVVVESYVVDVPDGNTAEDTRMFTDTVVKLNLQMLAAVAEDSSSASRRRD
notes: OsPYL2, ABA receptor (PYR1/PYL/RCAR ortholog) of Oryza sativa (japonica cultivar-group); Dimer when alone in solution (SEC, SLS, AU); stands with OsPP2C06 and ABA in the crystallised ternary complex; source: E. coli BL21 (DE3), vector pET-15b, purified (Ni-NTA, Source-15Q, Superdex-200); for the complex coexpressed with His6-OsPP2C06 (132-467) in E. coli BL21 (DE3) and purified with 0.2 mM (+)-ABA
Consider B2, for which the “stoichiometry N” value in data set [7] amounted to 2.
